Values joined by “and” are separate entries in the source; they are usually repeats but may differ in a detail not shown here. Equal entries are not always repeated.
molecular target: HIV-1LAI envelope gp120 labeled with radioactive iodine (HIV-1 LAI), P03377; test: 125I-gp120, peptide array

Going from SQYQFWKNFQTLKIVILG (modifications not checked) [CCR5 185-202] to NYYTSEPCQKINVKQIAA (modifications not checked) [CCR5 13-30], the counts minus background (counts per 20 min) falls from 1570 to 6.

First: AVFALKARTVTFGVVTSV (modifications not checked) [CCR5 133-150]
Second: IVLLLNTFQEFFGLNNCS (modifications not checked) [CCR5 253-270]
The counts minus background (counts per 20 min) of the first is lower: 63 for the first, 2130 for the second.

First: QEFFGLNNCSSSNRLDQA (modifications not checked) [CCR5 261-278]
Second: LPLLVMVICYSGILKTLL (modifications not checked) [CCR5 205-222]
The counts minus background (counts per 20 min) of the first is lower: 63 for the first, 68 for the second.

Going from QAMQVTETLGMTHCCINP (modifications not checked) [CCR5 277-294] to GVVTSVITWVVAVFASLP (modifications not checked) [CCR5 145-162], the counts minus background (counts per 20 min) falls from 81 to 69.

Going from KRHRAVRLIFTIMIVYFL (modifications not checked) [CCR5 229-246] to LGMTHCCINPIIYAFVGE (modifications not checked) [CCR5 285-302], the counts minus background (counts per 20 min) rises from 36 to 282.

Compared with CYSGILKTLLRCRNEKKR (modifications not checked) [CCR5 213-230], HCCINPIIYAFVGEKFRN (modifications not checked) [CCR5 289-306] is higher in counts minus background (counts per 20 min): 70 for the first, 200 for the second.

Going from KIVILGLVLPLLVMVICY (modifications not checked) [CCR5 197-214] to VFASLPGIIFTRSQKEGL (modifications not checked) [CCR5 157-174], the counts minus background (counts per 20 min) falls from 65 to 54.

Compared with FLFWAPYNIVLLLNTFQE (modifications not checked) [CCR5 245-262], CSSSNRLDQAMQVTETLG (modifications not checked) [CCR5 269-286] is lower in counts minus background (counts per 20 min): 616 for the first, 90 for the second.

First: AVRLIFTIMIVYFLFWAP (modifications not checked) [CCR5 233-250]
Second: VKQIAARLLPPLYSLVFI (modifications not checked) [CCR5 25-42]
The counts minus background (counts per 20 min) of the first is higher: 62 for the first, 18 for the second.

Compared with GLNNCSSSNRLDQAMQVT (modifications not checked) [CCR5 265-282], SQKEGLHYTCSSHFPYSQ (modifications not checked) [CCR5 169-186] is higher in counts minus background (counts per 20 min): -31 for the first, 304 for the second.

Going from FWKNFQTLKIVILGLVLP (modifications not checked) [CCR5 189-206] to SEPCQKINVKQIAARLLP (modifications not checked) [CCR5 17-34], the counts minus background (counts per 20 min) falls from 40 to -44.

Compared with GLHYTCSSHFPYSQYQFW (modifications not checked) [CCR5 173-190], RNYLLVFFQKHIAKRFCK (modifications not checked) [CCR5 305-322] is lower in counts minus background (counts per 20 min): 301 for the first, 65 for the second.

First: TVTFGVVTSVITWVVAVF (modifications not checked) [CCR5 141-158]
Second: NRLDQAMQVTETLGMTHC (modifications not checked) [CCR5 273-290]
The counts minus background (counts per 20 min) of the first is lower: -25 for the first, 10 for the second.

Going from YAFVGEKFRNYLLVFFQK (modifications not checked) [CCR5 297-314] to AARLLPPLYSLVFIFGFV (modifications not checked) [CCR5 29-46], the counts minus background (counts per 20 min) falls from 596 to 33.

First: NPIIYAFVGEKFRNYLLV (modifications not checked) [CCR5 293-310]
Second: QKINVKQIAARLLPPLYS (modifications not checked) [CCR5 21-38]
The counts minus background (counts per 20 min) of the first is higher: 162 for the first, 20 for the second.

Compared with ILKTLLRCRNEKKRHRAV (modifications not checked) [CCR5 217-234], GEKFRNYLLVFFQKHIAK (modifications not checked) [CCR5 301-318] is higher in counts minus background (counts per 20 min): 19 for the first, 69 for the second.

First: LVFFQKHIAKRFCKCCSI (modifications not checked) [CCR5 309-326]
Second: HFPYSQYQFWKNFQTLKI (modifications not checked) [CCR5 181-198]
The counts minus background (counts per 20 min) of the first is lower: 76 for the first, 1010 for the second.

First: TCSSHFPYSQYQFWKNFQ (modifications not checked) [CCR5 177-194]
Second: SVITWVVAVFASLPGIIF (modifications not checked) [CCR5 149-166]
The counts minus background (counts per 20 min) of the first is higher: 367 for the first, 46 for the second.

Going from FQTLKIVILGLVLPLLVM (modifications not checked) [CCR5 193-210] to QKHIAKRFCKCCSIFQQE (modifications not checked) [CCR5 313-330], the counts minus background (counts per 20 min) falls from 45 to 23.

Compared with RNEKKRHRAVRLIFTIMI (modifications not checked) [CCR5 225-242], VTETLGMTHCCINPIIYA (modifications not checked) [CCR5 281-298] is lower in counts minus background (counts per 20 min): 23 for the first, 15 for the second.

First: APYNIVLLLNTFQEFFGL (modifications not checked) [CCR5 249-266]
Second: VMVICYSGILKTLLRCRN (modifications not checked) [CCR5 209-226]
The counts minus background (counts per 20 min) of the first is higher: 1960 for the first, -8 for the second.

Going from LNTFQEFFGLNNCSSSNR (modifications not checked) [CCR5 257-274] to WVVAVFASLPGIIFTRSQ (modifications not checked) [CCR5 153-170], the counts minus background (counts per 20 min) falls from 293 to 87.

LKARTVTFGVVTSVITWV (modifications not checked) [CCR5 137-154] showed a counts minus background (counts per 20 min) of 74.

For SKTFSASHNVEATSMFQL (modifications not checked) [STRL33 325-342], the counts minus background (counts per 20 min) was 1520 and 1240.
For SEDNSKTFSASHNVEATS (modifications not checked) [STRL33 321-338], the counts minus background (counts per 20 min) was 524 and 434.
